Measured values: publication PMC10661074 (Protein Science : A Publication of the Protein Society, 2023)

Key:
[1] = target: the molecule itself; assay: SEC; analytical HP‐SEC, Agilent AdvanceBio SEC 300 Å column, phosphate‐buffered saline pH 7.4, 1.0 mL/min, UV 220 and 280 nm; purified ferritins before the pH jump
His‐tagged TfR1 = target: T1, His‐tagged TfR1 (UniProt P02786 101-760); assay: BLI; Octet N2; His‐tagged TfR1 (50 μg/mL) immobilised on Ni‐NTA biosensors; HFt 25–500 nM or HFt‐W4 loaded with ellipticine 50–400 nM in solution; single exponential fits; details: both partners purified
T1 construct: transferrin receptor 1 (TfR1); No catalogue number is printed; also called transferrin receptor TfR1; TfR1 receptor; source: bought: Merck
T1 sequence (P02786 101-760): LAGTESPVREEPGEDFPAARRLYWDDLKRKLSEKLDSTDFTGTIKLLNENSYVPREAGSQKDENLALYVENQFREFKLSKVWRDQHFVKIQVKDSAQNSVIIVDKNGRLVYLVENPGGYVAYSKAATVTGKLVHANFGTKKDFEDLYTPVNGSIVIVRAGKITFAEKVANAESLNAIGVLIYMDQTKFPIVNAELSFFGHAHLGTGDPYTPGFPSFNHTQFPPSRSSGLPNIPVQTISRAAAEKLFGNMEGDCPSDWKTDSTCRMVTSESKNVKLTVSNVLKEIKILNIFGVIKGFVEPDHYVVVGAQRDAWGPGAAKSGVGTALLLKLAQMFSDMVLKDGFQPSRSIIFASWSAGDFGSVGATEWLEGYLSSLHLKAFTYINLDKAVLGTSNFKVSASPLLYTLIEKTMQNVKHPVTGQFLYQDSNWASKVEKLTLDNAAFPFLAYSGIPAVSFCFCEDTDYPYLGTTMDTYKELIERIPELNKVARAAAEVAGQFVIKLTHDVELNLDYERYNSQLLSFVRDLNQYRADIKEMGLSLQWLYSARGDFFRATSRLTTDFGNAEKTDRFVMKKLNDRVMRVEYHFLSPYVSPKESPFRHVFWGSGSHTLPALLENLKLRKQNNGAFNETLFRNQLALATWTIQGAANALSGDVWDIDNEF

Binder | stoichiometry N [1] | Kd (His‐tagged TfR1) [nM]
HFt‐W4 (natural protein, human, UniProt P02794 1-183, looked up, human ferritin heavy chain (H ferritin) with four substitutions to tryptophan; synthetic gene in pET22b; 24-mer cage; In the BLI experiment the cage was loaded with ellipticine (a small molecule, about 98 molecules per cage) by a pH jump; the protein is the same; also called HFt‐W4 mutant; hydrophobicity‐enhanced ferritin nanoparticle; source: E. coli, purified (ammonium sulfate fractionation, …)) MTTASTSQVRQNYHQDSEAAINRQINLELYASYVYLSMSYYFDRDDVALKNFAKYFLWQSWEEREHAEKLMKLQNQRGGRIFLQDIKKPDCDDWESGLNAMECALHLEKNVNQSLLELHKLATDKNDPWLCDFIETHYLNEQVKAIKELGDWVTNLRKMGAPESGLAEYLFDKHTLGDSDNES | 24 | 25
HFt‐W6 (natural protein, human, UniProt P02794 1-183, looked up, human ferritin heavy chain (H ferritin) with six substitutions to tryptophan; synthetic gene in pET22b; 24-mer cage as purified; also called HFt‐W6 mutant; source: E. coli, purified (ammonium sulfate fractionation, heat treatment at 70°C, DNase, Superdex 200 SEC); copies: 24) MTTASTSQVRQNYHQDSEAAINRQINLELYASYVYLSMSYYFDRDDVALKNFAKYFLWQSWEEREHAEKLMKLQNQRGGRIFLQDIKKPDCDDWESGLNAMECALHLEKNVNQSLLELHKLATDKNDPWLCDFIETHWLNEQVKAIKELGDWVTNLRKMGAPESGLAEYLWDKHTLGDSDNES | 24 | –
